Experiment: soluble on expression in E. coli; label from the status in PepcDB or PDB records

Sequence | soluble on expression in E. coli
MSLDPQYDGVWRQSLALLAQDTAGVIPSSTAVKWLTDQQCANGAFAPFRADPAKACDAKTPVDTNNTAAAVQALWAVGGHGDVIEEALGWLKSVQNEDGGWGYVPGTPSDANSTSVVIGALTATETDPAKVVKDGKSPYDALLTFALPCAKDKGAGAFAFQPDKDGKLLPNADATAAGVLGTLGEGLVAEAGKKTGAASCADADQPDRERAAANAAAYLTDTLAKDGHLVSALGGSADQPDYGNTADAVVALAAQGGADKAAEPLAWLKKNAAKWAGEGHHHHHH | soluble
MSLDRKGNPVVRWDNNWLGSNEPCEDRWATDLVRRDGAAGGAVGKAVNFWTRWYRGDSIPSESAPAEEDEAARGKHDLMLFSIMDGHAGDATSRLLQKSLHPTISMALAGLQRGNVPPRHNVWERWAGYLNPWYWLGTDTVWTPENVSKTIQNAFVQLDDNICQTPLKLLPTLSSPSTSSPTPRETLVALAQPAAAGACAISTLVDSENDDLYVAVTGDCRAVAGWEGEDGKWRCDVLSEDQMGDNPKEIERMRSEHPASERDTVIRNGRVQGGLQPTRAFGDAVYKWTNAQAAQIADAFRAQGERPRPGRPWNYTPPYVTARPEVTYRKLNAHTGEKLRFIVLATDGLWDRITSEESTLLLASYLSHPSHAPLPKSALPRREGHHHHHH | soluble
MSLDRYLGFANSNLGRRLVDALGLPRPAPLERWQAGRLRPVEGALVLGGGPLAKQVEAIAPRLTDEVYSFNADNLQAEAWVAGLGPKIKAVVFDASHLSDSDALKQLREFFQPLLRSLAPCAHVLVLGRAPEGLDDPLASVAQRALEGFSRSLAKELRNGATAQLLYVAPGAEDQLEGALRFFLSPKSAFISGQVLRLQGCTSQVEDWTRPLGGRRALVTGAARGIGAAIAETLARDGADVLLLDVPQASKDLDALAARLGGKALPLDICASDAATQLLAALPDGIDIVVHNAGITRDKTLVNMTPEYWDAVLAVNLKAPQVLTQALYDNGALGENARITLLASVSGIAGNRGQANYAASKAGLIGLAQAWAPRLAERGGSINAIAPGFIETHMTAAMPMGLREAGRRLSSLGQGGSPQDVAEAIAWLSQPGSGSVNGQVLRVCGQALMGAEGHHHHHH | soluble
MSLDSQQKLAAQVTTPLTLSGDNQQAVAIFDQADPRIRIVYFGFTRCPDVCPTSLAMLSAALNQVDDKTKAQLRPMFISLDPERDDAKLAAQYAHYFHPMIEGLSGSVATTNQIAQKYGVIFRKTELPNSELKYTLDHSSYFYFLQPDGTLINKVPHTQDPTPIVDAIKKVIQEGHHHHHH | soluble
MSLDSSMKISKVDNIGNHEDIEVNNAEIALSLASQMVGSGEEVVSMSIKYSKERVAFGKPIGSYQAIKHRVVNDAIDVELARSLILEAAENIKYAWIAKDLANKKIPKAILSGIQVHGGIGFTDDLDIHLHLRRALTLSKLYNSKVNISEFLQPIEGHHHHHH | not soluble
MSLDSYRTARLMQEGVTYPVIVRPHNQILENRINRIIRETAEELLPSGRYRTMNIITAASEYETTVNKNEILSIRFENYYYPEMMASGITVVRAVTLNLVTGRRYRLKDLFIPGIDYEDYLNRLIERQIEERDIPLINDFPGITGNEVFYLTEGELVIVYQRYELTPGYYGVLEFEIPYEELQPLIDETSPIYMIAQNSEGHHHHHH | soluble
MSLDTEAVLAAVEDAPVRETLDSMVASLKSHEDSEFAGAIATFTGRVRERDDPDDTPTQHLEFERYDTVAEQRMATIREQLCERDGVYDVRMHHRTGVVPAGDDVVHVVVLAGHRGDAFRAVSDGIDRLKDEVPLFKKEVTVDDAFWRHDEGHHHHHH | soluble
MSLDTTPEHLVGTDAETIDLSFAAPAAPVEILHAAFATALEQLPRHFERHGYDRYGTAELREAVARWYQRRGLPTRPDHILITNGAQHALALLTRVLLSPRDKVLIDHPTYPHAITTFTQARARLLPVAVTSSGWDTEQLQAAGQAANLAYLIPDFHNPTGMCMPTSVRQQLRLACPTVVDETMTDLALDVPSPEPLALHMPTAISIGSVSKSVWGGLRTGWIRALPSLLERVEQARPTTDLGTPVVEQLATAVLLNEHQTQRPDTLQQLRSQRDALWQALTEHLPNVHAPQPAGGVTLWAAFPGPVSSRLAAMAPDHGVTIAAGPRFGIGGAFERNIRLPYTLPSSQLAQAIRRLAQAAQALAQGATGTEGHHHHHH | not soluble
MSLEATIRLGSSLPLTGHARYLGVETLRGALAYINHVNDSGGVHGRRIELDARDDGYDPPRCLANTQEQLISGEVFALTCYVGTPTTMRILPLVDEARIPLVGAFTGANGLRDPFSRYVFNVRASYYQETDAAVRHLVHDLGLTRIAVFYQYDAYGFDGLTGTELALRELGLAPVARGSYARGTDNIEDGLHRIIASDAEAVLMVGTSEPTARFIRMAEEAGFDAVYHALSFTGAEELARLLGHTDAKVLLSQVVPPPDAPEAPAILGCTTEYVNLLKRYYPDATPSAIGLEGYINARILVEGLRRAGPDLTREGFVRALESLRDYPLGGRTVVSFSPESRQGMGSVYFTRLVGGRFELMREAGAPPSAARPASNKGEGHHHHHH | soluble
MSLEDGPVTNPRQEEPQKVVKEEGFARGADVSWLTQMEAEGLKFYTPDENRQEMECMDLLRDYCGVNSIRLRVWVNPKDGWNNMNDVIVKAKRAERLGLRTMIDFHFSDTWADPGHQEMPEAWKELSFDDLKIALSEHVKSVLTALKAVGVTPEWVQVGNETTPGMMLPVGSVDNPEQLTALNNAGYDAVKAICPDAKVIVHLDAGNDQWVYNRMFDILQANGGKYDMIGMSLYPYWAEQEGKTGGWLKVADDCIANIKHVKQKYNKPVMICEIGMPYDQAEACKQLITKMMQADVEGIFYWEPQAPNGYNDGYNLGCFDNNAPTIALDAFKIEGHHHHHH | soluble
MSLEGINPAVIMKAIMQSESVEQLSQEREKAEKLLKMYIAQDVAIHFISNIFTELNDALIVKAIEFSVADMKREGIDLPDIEFCWLSLGSEGRKEQLLRTDLDNAILFRDPENEASRETVQRVFLELGKRVTAILVACGFKPCPAEIMASNPEWCQPLSGWMNYFRKWIGTPEPKALMNSTIFFDFRPVYGSTALALEMKREINTEIARGRGFLQFFAKNALQNPPPLGFFRNFLVEKSREHAHEFDIKARALMPLSDAARVLACEFGVTDFLGTVERFRRIGQLLPSFQELAEEAAQGYEFLMRLRTEHGLAEKSSGRYIDPKHLNKMQRQKLRDLFTTIGKVQSMLNLRYQLDYIRAEGHHHHHH | soluble
MSLEGTQMLATNKKCWDTVAPYFFQVDCLPKYGPYTASEDEIRLFDSIRKKKVLDIGCGSGHSLQYMAEQGAEELWGLDLSSTQIEIANKTLKDWNPKLVCGAMEEEGDIPKGYFDIVYSIYALGWTSDLRKTLELIYSYVKPGGSFIFSWEHPVYSNLQYGTEEVAIKSSYHEETPITFETFKGENVQATLHKRKISTYINELNRAGFKIERIEEPEPSSSLDGELAEPSTKYYSLYKARMVPTTFIIKARKEGHHHHHH | soluble
MSLEINKGEGAVLGKEFFCEEEPGYLIEEEEEKELLEFISSGNLEIDRRLEGGIPAGSLCLLEGANDSGKSIFLQQIIWGALNQDKTVLFLTTEKTSKEVLNQMESLKRGISDYFIIGRSKIFEINAGYVEENPRLSESLLQVLLECIQRCEEELVLIDSLTIFAVNASENAVLNFFTECVKLCDRGKTILISVHGYAFSQAVLYRLRSVCSACLELRIEQVGDQWVKTMEIQKLRGARKTTGNLLSFDVDSEFGLKIIPVSKIKAEGHHHHHH | soluble
MSLEKELVTWFNILNKPPLEYLKGVEDFYNAYGEVLEMQDRHAHLLSYKDDDYLHVILCASILHHYSDQDIETLKELLVKFYYQDWVAGQTKTTRSQTCCNIINVLKEKKSMDYITSIVKEYLDDKNITQRFKDNLKDSNLYTKFYFINGKTAKKNSWVKPILILVEYFMSDNANPACIKMDDDLHVERILPQNPDPSSQWMKDFSEEERGLYTHSLANLTLLGGKKNTKALSQALNQDFKEKKEIYMGKTIMLDNKKTFRVMTCYDMTKNDVCRYTEWTPTSLEKRKESEGHHHHHH | not soluble
MSLEKQKLIKLIDVAAGRKKADLVLKNAKIVDVFQAKILTGDIAISDGYIAGIGGSYQGVVECNYTGKYVAPGFIEAHIHIESSYVSPEEFSRVFIPRGTTTILADPHEIVNVAGLKGLDYMVNAAKNAKMDIRYMMPPCVPATNFETSGADLYADDMEDALKTGEVDGLAELMNFPGVINADDKMIDEILMAKKYGARIDGHAPQVVGKDLNAYIAAGPANDHECSTLEEAEERLARGMYLLLREGSVTQDLRKLLPIVNTANSRRCLLSGDDVQAKTAINKGHLDNSIRICIDEGLNPITAIQMATLNPAEYCGLNDRGAIAPGRRADMVVFESLEDFAVEETYILGEKLSQGNEYLGEVNYYPIDSVESSMHVKDFTREKLQLHLNSDKVRAIGVVPGEVLTTEEHVTVKRDGDGNFVYNDQEDVTKIVVVERHHNTGNVNVNLLSGYGIKAGAIAISIGHDSHNIIATGTNDDDIFMAVNELIKQEGGAVVVKDEKVISRMELKIAGLMCNLPAEKMIAQQDALDEAVHEELGVPDNVNPVMTLSFMPLAVIPKLKITDKGLVDVEKNAFVSNELDEGHHHHHH | soluble
MSLEKSGFIVHQKFDSILQLEDFDSLDRALKESESYYQKLPSNWKTQVRKTSYHKNQMLNSLKILKKILREKNPESRKIQFQNSFLLLETKDEALGRITAYYEVIIEGRFYPEGDFIYPVLETPSDLIVKKDGNKKSVGKIINEVFVPYETREELSHTSVWKKRSKAIVYVKIVDLHLAQLEGSAFVKVPDHIPFRITYSEDNGKEYQSPAESLKGICSSLIPSDLKSCILKYPKEVEMAILKNPRYIFFKLESSAPRGSGGIELIPKRSVAMDPGIPLGIPVLISFESSVLTEKNRIVFVHDRGSQITGHGRLDYFLGTGETAEYQAGKINTQGKIFLILPKIKNEGHHHHHH | soluble
MSLELKYKIGFPSLYYPKISLADRIDAAAEKFGEKTAIISAEPKFPSEFPESMNFLEICEVTKKLASGISRKGVRKGEHVGVCIPNSIDYVMTIYALWRVAATPVPINPMYKSFELEHILNDSEATTLVVHSMLYENFKPVLEKTGVERVFVVGGEVNSLSEVMDSGSEDFENVKVNPEEDVALIPYTGGTTGMPKGVMLTHFNLAANALQLAVATGLSHMDTIVGCMPMFHSAEFGLVNLMVTVGNEYVVMGMFNQEMLAENIEKYKGTFSWAVPPALNVLVNTLESSNKTYDWSYLKVFATGAWPVAPALVEKLLKLAAEKCNNPRLRHNQIWGMTEACPMVTTNPPLRLDKSTTQGVPMSDIELKVISLEDGRELGVGESGEIVIRGPNIFKGYWKREKENQECWWYDEKGRKFFRTGDVGFIDEEGFLHFQDRVKEVIKYKGYTIAPFELEALLMKHEAVMDVAVIGKPDEEAGEVPKAFIVLKPEYRGKVDEEDIIEWVRERISGYKRVREVEFVEELPRTASGKLLRRLLREKEAEGHHHHHH | soluble
MSLELLSNRLEFLREAERLKDVLRSAHTSSGRPESTAEHSWRLCLMALAFEDQLAGLDLGKVLRMCVVHDLGEAIHGDIPAVEQAAHPDKGEQERADLLQLTRHLDAPLRDRLLALWDEYERGESAEALAVKALDKLETLLQHTQGDNPADFDYAFNLDYGRRYTDRAPLFKTLRELLDARTRQRLAVRRDA | not soluble
MSLELSQKKWKSFKISEIFRIESCKCGNASLLEDGDDLFYRGAKKNDNGVIRRVKRIDSLVSKGNCIMFICDGDGSCGYTNYISDDFIGSTTTSVGYNENLNVYIGTFITTILDMHKYKYSHSRKYRNSLLNEILILPINNDGIPDWKWIEEYMKSLSGSINTQIYDIIDTADGDRNIVKFFINKIEASDFKLWLQDNANMDVNNQMSLKDVKWKGFKLSELFNIERGCRLKKSNRITGNTLLITAGKENHGIAMYVEPPMNSEGNLINKIYKDRLTIDMFCNSFYQSENFICDDNILVLIEKQKMTKNIKHFIATILSMDIYKFSFTRQYRQKDFNKHIIMLPINDKGNLDWEWIEEYMKSLPYSDKETRLFVNTIEGHHHHHH | soluble

Source: the DeepSol protein solubility set
